Assay results published in the nanobody polyreactivity screen of Harvey et al. (2022).

assay: yeast display, Sf9 membrane polyspecificity reagent, FACS + sequencing; frameworks hold sequencing errors
Procedure, shortened: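 Nanobodies came from a synthetic yeast display library in Saccharomyces cerevisiae BJ5465, induced with galactose for 36–48 hours and stained for 1 hour at 4 °C with 10% biotinylated, detergent-solubilized Sf9 membrane reagent. Cells were enriched on streptavidin microbeads and then FACS-sorted, with low and high (top ~1%) gates set on anti-HA fluorescence for expression and streptavidin fluorescence for reagent binding. Each polyreactivity label reflects the gate a clone came from. Genes were amplified by colony PCR, sequenced by MiSeq 2 × 250 and filtered by CDR length.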

Row | Sequence | polyreactivity (PSR sort gate)
1 | QDQLVESGGGLVQAGGSLRLSCAASGFTIGYNVMGWYRQAPGKERELVATISWNGARTYYADSVKGRFTISRDNAKNTVYLQMNSLKPEETAVYYCAARRYYRGEYDYWGQGTQVTVSS | low polyreactivity
2 | QDQLVESGGGLVQAGGSLRLSCAASGFTLATYAMGWYSPAPGKEREWVAAITRSGGSTDDADSVKGRFTISRDIAKNTVYVQMNSLKPEDTAVYYCNAREVRYEYNYWGHGTQVTVSS | low polyreactivity
3 | QDQLVESGGGLVQAGGSLRLSCAASGGTFIYNTMGWYRQAPGKERELVAAINSGGSTTYADSVKGRFTISRDNAKNTVYLQMNSLKPEDTAVYYCAAVYVYLGVYARYPIWGYYYWGQGTQVTVSS | low polyreactivity
4 | QDQLVESGGGLVQAGGSLRLSCAASGIIFQYYAMGWYRQAPGKERELVAAISWSGGSTYYADSVKGRFTISRDNAKNTVYLQMNSLKPEDTAVYYCAARSRSYWPYEGDYWGQGTQVTVSS | low polyreactivity
5 | QDQLVESGGGLVQAGGSLRLSCAASGIILDHYSMGWYRQAPGKERELVAAISSGTRTNYADSVKGRFTISRDNAKHTVSLQMNSLKPEDTAVYYCAATIYRRYRSKYSITSYWGQGTQVTVSS | high polyreactivity
6 | QDQLVESGGGLVQAGGSLRLSCAASGITFVYYAMGWYRQAPGKERELVAAITGSGDSTYYADSVKGRFTISRDNAKNTVYLQMNSLKPEDTAVYYCAAEAWWYGGFGYWGQGTQVTVSS | high polyreactivity
7 | QDQLVESGGGLVQAGGSLRLSCAASGITFWYYAMGWYRQAPGKERELVAAITRSGRTNYADSVKGRFTISRDYAKNTVYLQMNILKPEDTAVYYCAVDLYSFSPRYYYWGQGTQVTVSS | low polyreactivity
8 | QDQLVESGGGLVQAGGSLRLSCAASGLIFSYYAMGWYRQAPGKERELVAAIDWISGSKYYADSVKGLFTISRDNAKNTVYLQMNSLKPEDTAVYYCAAYGSFWYARFGYCGQGTQVTVSS | low polyreactivity
9 | QDQLVESGGGLVQAGGSLRLSCAASGLIFYEYAMGWYRQAPGKERELVAAISRGGRTYYADSVKGRFTISRDNAKNTVYLQMNSLKPEDTAVYYCADRHWPEKYDYWGQGTHVTVSS | high polyreactivity
10 | QDQLVESGGGLVQAGGSLRLSCAASGLTFDKYVMGWYRQAPGKERELVAAITKGGGSTYYADSVKGRFTISRDNAKNTVYLQMNSLKPEDTAVYYCAVTRPLRYWGQGTQVTVSS | high polyreactivity
11 | QDQLVESGGGLVQAGGSLRLSCAASGLTFDRYTMGWYRQAPGKERELVAAITRGGGNTYYADSVKGRFTISRDNAKNTVYLQMNSLKPEDTAVYYCAANRRDGYDYWGQGTQVTVSS | low polyreactivity
12 | QDQLVESGGGLVQAGGSLRLSCAASGLTFRKNAMGWSRQAPGKERELVAAISTGGRTYYADSVKGRFTISRDNAKNTVYLQMNSLKPEDTAVYYCNTVYVKSGLDYWGQGTQVTVSS | high polyreactivity
13 | QDQLVESGGGLVQAGGSLRLSCAASGNIIVEKAMGWYRQAPGTERELVAVSTSGTSTYADSVKGRFTISRDNAKNTVYLQMYSLKPEDTAVYYCNKRQVFVSTGEYEFDYWGQGTQVTVSS | low polyreactivity
14 | QDQLVESGGGLVQAGGSLRLSCAASGNIYPYAMGWYRQAPGKEREFVAAIRYSGGITYYADSVKGRFTISRDNAKNTVYLQMNSLKPEDTAVYYCAAYGWGNRWYSRFDYWGQGTQVTVSS | high polyreactivity
15 | QDQLVESGGGLVQAGGSLRLSCAASGRIFDTYAMGWYRQAPGKERELDAAITRRGGSTYYADSVKGRFTISRDIAKNTVYLQMNSLKPEDTAVYYCAKSLVNRHYDYWGQGTQVTVSS | low polyreactivity
16 | QDQLVESGGGLVQAGGSLRLSCAASGRIFGLYAMGCYRPAPGKERELVAAYADSVKGRFTISRDNAKNTVYLQMNSLKPEDTAVYYCAKGPLYAGYSIHLRDFNYWGQGTQVTVSS | low polyreactivity
17 | QDQLVESGGGLVQAGGSLRLSCAASGRIFGTYAMGWYRQAPGKERELVATISYSSGRTYYADSVKGRFTISRDNAKNTVYLQMNSLKPEDTAVYYCAAVGTGSSLRYDYWGQGTQVTVSS | high polyreactivity
